In patent publication US11278600B2, “Human alpha-galactosidase variants” (Codexis, Inc., priority 2014, dated 2022):

How the values were obtained:
Type in all cases: biochemical
[1] = HTP-analysis of yeast culture supernatants, no challenge (MUGal hydrolysis); conditions: activity of the variant/activity of Rd2BB (SEQ ID NO: 10), yeast supernatant
Procedure, shortened: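 GLA variants were expressed in INVSc1 yeast grown in SD-Ura broth with glucose at 30° C., and culture supernatants were collected after 66-84 h. Supernatant was mixed with McIlvaine buffer pH 4.8 and MUGal (2 mM stock) in 50 mM citrate, 200 mM KCl, pH 4.6, incubated at 37° C. for 30-180 minutes, then quenched with sodium carbonate.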

[2] = HTP-analysis of supernatants pretreated with acid (MUGal hydrolysis); conditions: challenge at pH 4.2; activity of the variant/activity of Rd2BB (SEQ ID NO: 10); yeast supernatant
Procedure, shortened: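 Yeast INVSc1 supernatant, GLA variants; acid challenge: McIlvaine pH 3.3-4.3, 37° C., 1-3 h. Assay: MUGal in McIlvaine pH 4.8 plus citrate pH 4.3, 37° C., 30-180 min, Na2CO3 stop, Ex 355/Em 448 nm.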

[3] = HTP-analysis of supernatants pretreated with base (MUGal hydrolysis); conditions: challenge at pH 7.6; activity of the variant/activity of Rd2BB (SEQ ID NO: 10); yeast supernatant
Procedure, shortened: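 GLA variants were secreted by transformed INVSc1 yeast grown 66-84 h at 30° C. Supernatants were exposed to neutral-to-basic buffers (pH 7.0-9.7) at 37° C for 1-18 h, then assayed with MUGal in acidic citrate/McIlvaine buffer, with fluorescence read after quenching.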

| Molecule | Relative Activity of GLA Variants After No Challenge (NC) [1] | Relative Activity of GLA Variants After Challenge at pH 4.2 [2] | Relative Activity of GLA Variants After Challenge at pH 7.6 [3] |
| --- | --- | --- | --- |
| 197 (protein, Synthetic Polypeptide sequence of Variant No. 197 of mature Human GLA) LDNGLARTPTMGWLHWERFMCNLDCQEEPDSCISEKLFMEMAELMVSEGWKDAGYEYLCIDDCWMAPQRDSEGRLQADPQRFPHGIRQLANYVHSKGLKLGIYADVGNKTCAGFPGSFGYYDIDAQTFADWGVDLLKFDGCYCDSLENLADGYKHMSLALNRTGRSIVYSCEWPLYMWPFQKPNYTEIRQYCNHWRNFADIDDSWASIKSILDWTSFNQERIVDVAGPGGWNDPDMLVIGNFGLSWNQQVTQMALWAIMAAPLFMSNDLRHISPQAKALLQDKDVIAINQDPLGKQGYQLRQGDNFEVWERPLSGLAWAVAMINRQEIGGPRSYTIAVASLGKGVACNPGCFITQLLPVKRQLGFYEWASRLRSHINPTGTVLLQLENTMQMSKDLLL | ++ (++ = 1.5 to 2.5 relative activity over Rd2BB (SEQ ID NO: 10)) | ++ (++ = 1.5 to 2.5 relative activity over Rd2BB (SEQ ID NO: 10)) | ++ (++ = 1.5 to 2.5 relative activity over Rd2BB (SEQ ID NO: 10)) |
| 198 (protein, Synthetic Polypeptide sequence of Variant No. 198 of mature Human GLA) LDNGLARTPTMGWLHWERFMCNLDCQEEPDSCISEKLFMEMAELMVSEGWKDAGYEYLCIDDCWMAPQRDSEGRLQADPQRFPHGIRQLANYVHSKGLKLGIYADVGNKTCAGFPGSFGYYDIDAQTFADWGVDLLKFDGCYCDSLENLADGYKHMSLALNRTGRSIVYSCEWPLYMWPFQKPNYTEIRQYCNHWRNFADIDDSWASIKSILDWTSFNQERIVDVAGPGGWNDPDMLVIGNFGLSWNQQVTQMALWAIMAAPLFMSNDLRHISPQAKALLQDKDVIAINQDPLGKQGYQLRQGDNFEVWERPLSGLAWAVAMINRQEIGGPRSYTIAVASLGKGVACNPGCFITQLLPVKRKLGFYEWDSRLRSHINPTGTVLLQLENTMQMSKDLLL | ++ (++ = 1.5 to 2.5 relative activity over Rd2BB (SEQ ID NO: 10)) | ++ (++ = 1.5 to 2.5 relative activity over Rd2BB (SEQ ID NO: 10)) | +++ (+++ = >2.5 relative activity over Rd2BB (SEQ ID NO: 10)) |
| 199 (protein, Synthetic Polypeptide sequence of Variant No. 199 of mature Human GLA) LDNGLARTPTMGWLHWERFMCNLDCQEEPDSCISEKLFMEMAELMVSEGWKDAGYEYLCIDDCWMAPQRDSEGRLQADPQRFPHGIRQLANYVHSKGLKLGIYADVGNKTCAGFPGSFGYYDIDAQTFADWGVDLLKFDGCYCDSLENLADGYKHMSLALNRTGRSIVYSCEWPLYMWPFQKPNYTEIRQYCNHWRNFADIDDSWASIKSILDWTSFNQERIVDVAGPGGWNDPDMLVIGNFGLSWNQQVTQMALWAIMAAPLFMSNDLRHISPQAKALLQDKDVIAINQDPLGKQGYQLRQGDNFEVWERPLSGLAWAVAMINRQEIGGPRSYTIAVASLGKGVACNPGCFITQLLPVKRKLGFYEWSSRLRSHINPTGTVLLQLENTMQMSKDLLL | ++ (++ = 1.5 to 2.5 relative activity over Rd2BB (SEQ ID NO: 10)) | ++ (++ = 1.5 to 2.5 relative activity over Rd2BB (SEQ ID NO: 10)) | ++ (++ = 1.5 to 2.5 relative activity over Rd2BB (SEQ ID NO: 10)) |
| 200 (protein, Synthetic Polypeptide sequence of Variant No. 200 of mature Human GLA) LDNGLARTPTMGWLHWERFMCNLDCQEEPDSCISEKLFMEMAELMVSEGWKDAGYEYLCIDDCWMAPQRDSEGRLQADPQRFPHGIRQLANYVHSKGLKLGIYADVGNKTCAGFPGSFGYYDIDAQTFADWGVDLLKFDGCYADSLENLADGYKHMSLALNRTGRSIVYSCEWPLYMWPFQKPNYTEIRQYCNHWRNFADIDDSWASIKSILDWTSFNQERIVDVAGPGGWNDPDMLVIGNFGLSWNQQVTQMALWAIMAAPLFMSNDLRHISPQAKALLQDKDVIAINQDPLGKQGYQLRQGDNFEVWERPLSGLAWAVAMINRQEIGGPRSYTIAVASLGKGVACNPACFITQLLPVKRKLGFYEWTSRLRSHINPTGTVLLQLENTMQMSKDLLL | + (+ = 0.5 to 1.5 relative activity over Rd2BB (SEQ ID NO: 10)) | + (+ = 0.5 to 1.5 relative activity over Rd2BB (SEQ ID NO: 10)) | + (+ = 0.5 to 1.5 relative activity over Rd2BB (SEQ ID NO: 10)) |
| 201 (protein, Synthetic Polypeptide sequence of Variant No. 201 of mature Human GLA) LDNGLARTPTMGWLHWERFMCNLDCQEEPDSCISEKLFMEMAELMVSEGWKDAGYEYLCIDDCWMAPQRDSEGRLQADPQRFPHGIRQLANYVHSKGLKLGIYADVGNKTCAGFPGSFGYYDIDAQTFADWGVDLLKFDGCYTDSLENLADGYKHMSLALNRTGRSIVYSCEWPLYMWPFQKPNYTEIRQYCNHWRNFADIDDSWASIKSILDWTSFNQERIVDVAGPGGWNDPDMLVIGNFGLSWNQQVTQMALWAIMAAPLFMSNDLRHISPQAKALLQDKDVIAINQDPLGKQGYQLRQGDNFEVWERPLSGLAWAVAMINRQEIGGPRSYTIAVASLGKGVACNPACFITQLLPVKRKLGFYEWTSRLRSHINPTGTVLLQLENTMQMSKDLLL | + (+ = 0.5 to 1.5 relative activity over Rd2BB (SEQ ID NO: 10)) | + (+ = 0.5 to 1.5 relative activity over Rd2BB (SEQ ID NO: 10)) | + (+ = 0.5 to 1.5 relative activity over Rd2BB (SEQ ID NO: 10)) |
| 202 (protein, Synthetic Polypeptide sequence of Variant No. 202 of mature Human GLA) LDNGLARTPTMGWLHWERFMCNLDCQEEPDSCISEKLFMEMAELMVSEGWKDAGYEYLAIDDCWMAPQRDSEGRLQADPQRFPHGIRQLANYVHSKGLKLGIYADVGNKTCAGFPGSFGYYDIDAQTFADWGVDLLKFDGCYCDSLENLADGYKHMSLALNRTGRSIVYSCEWPLYMWPFQKPNYTEIRQYCNHWRNFADIDDSWASIKSILDWTSFNQERIVDVAGPGGWNDPDMLVIGNFGLSWNQQVTQMALWAIMAAPLFMSNDLRHISPQAKALLQDKDVIAINQDPLGKQGYQLRQGDNFEVWERPLSGLAWAVAMINRQEIGGPRSYTIAVASLGKGVACNPACFITQLLPVKRKLGFYEWTSRLRSHINPTGTVLLQLENTMQMSKDLLL | + (+ = 0.5 to 1.5 relative activity over Rd2BB (SEQ ID NO: 10)) | + (+ = 0.5 to 1.5 relative activity over Rd2BB (SEQ ID NO: 10)) | + (+ = 0.5 to 1.5 relative activity over Rd2BB (SEQ ID NO: 10)) |
| 203 (protein, Synthetic Polypeptide sequence of Variant No. 203 of mature Human GLA) LDNGLARTPTMGWLHWERFMCNLDCQEEPDSCISEKLFMEMAELMVSEGWKDAGYEYLCIDDCWMAPQRDSEGRLQADPQRFPHGIRQLANYVHSKGLKLGIYADVGNKTCAGFPGSFGYYDIDAQTFADWGVDLLKFDGCYCDSLENLADGYKHMSLALNRTGRSIVYSCEWPLYMWPFQKPNYTEIRQYCNHWRNFADIDDSWASIKSILDWTSFNQERIVDVAGPGGWNDPDMLVIGNFGLSWNQQVTQMALWAIMAAPLFMSNDLRHISPQAKALLQDKDVIAINQDPLGKQGYQLRQGDNFEVWERPLSGLAWAVAMINRQEIGGPRSYTIAVASLGKGVACNPACFITQLLPVKRKLGFYAWDSRLRSHINPTGTVLLQLENTMQMSKDLLL | ++ (++ = 1.5 to 2.5 relative activity over Rd2BB (SEQ ID NO: 10)) | ++ (++ = 1.5 to 2.5 relative activity over Rd2BB (SEQ ID NO: 10)) | +++ (+++ = >2.5 relative activity over Rd2BB (SEQ ID NO: 10)) |
| 204 (protein, Synthetic Polypeptide sequence of Variant No. 204 of mature Human GLA) LDNGLARTPTMGWLHWERFMCNLDCQEEPDSCISEKLFMEMAELMVSEGWKDAGYEYLCIDDCWMAPQRDSEGRLQADPQRFPHGIRQLANYVHSKGLKLGIYADVGNKTCAGFPGSFGYYDIDAQTFADWGVDLLKFDGCYCDSLENLADGYKHMSLALNRTGRSIVYSCEWPLYMWPFQKPNYTEIRQYCNHWRNFADIDDSWASIKSILDWTSFNQERIVDVAGPGGWNDPDMLVIGNFGLSWNQQVTQMALWAIMAAPLFMSNDLRHISPQAKALLQDKDVIAINQDPLGKQGYQLRQGDNFEVWERPLSGLAWAVAMINRQEIGGPRSYTIAVASLGKGVACNPACFITQLLPVKRKLGFYDWTSRLRSHINPTGTVLLQLENTMQMSKDLLL | + (+ = 0.5 to 1.5 relative activity over Rd2BB (SEQ ID NO: 10)) | + (+ = 0.5 to 1.5 relative activity over Rd2BB (SEQ ID NO: 10)) | + (+ = 0.5 to 1.5 relative activity over Rd2BB (SEQ ID NO: 10)) |
